Measurements reported in the DeepSol protein solubility set.

Assay: soluble on expression in E. coli; label from the status in PepcDB or PDB records

Sequence | soluble on expression in E. coli
MSKKKGLSAEEKRTRMMEIFSETKDVFQLKDLEKIAPKEKGITAMSVKEVLQSLVDDGMVDCERIGTSNYYWAFPSKALHARKHKLEVLESQLSEGSQKHASLQKSIEKAKIGRCETEERTRLAKELSSLRDQREQLKAEVEKYKDCDPQVVEEIRQANKVAKEAANRWTDNIFAIKSWAKRKFGFEENKIDRTFGIPEDFDYID | soluble
MAHHHHHHMLRSPQPRFPQHVPGAYPPQQQQQMPPQPQSQPQMPMNAQPPAQAIQQQLEHQDVVHDTQFDYYGQLLATASSDRTIGIHVVQNGQLQRIATLTGHEGPVWMVSWAHPRFGMALASAGYDHKAIIWKEMSQSSKQWAPVHVIDCHHGSVNAVQWAPETPMVATASSDGTVAVTVFEGGVWRDSLKLSNNSNNIAHAMGATSVSFAPMRPSLGGAVLLASGGCDSQVRLWCLQEGSPMANSFELLEVLEGHTDWVRDVAFAPLCAATRHAVLASCGQDKSVIIHRKPWDQLGALIQERQRSSSTNGPQQYLQKESGGIWERSVVLFEEPVWRLSWSPAEEVLVVTTGDSEVYILRENGEFTQPWLKTPLSEYQSGTR | not soluble
MGSDKIHHHHHHMSKNVLIVSASPRKGGNSDLLCDQFIQGVLESKNQVEKIFLKDKDINYCTGCGACYEKEANCSQTDDMGEILEKMIGADVIVLATPVYFYTMNAQMKTMIDRTCSRYTEICDKDFYFIVTAADENVADMERTIEGFRGFTSCLNGSKEKGIVYGVGAWNVGDIKGSKAMKQAYEMGKLA | not soluble
MSSYQQKQTFTPPPQLQQQQVKQPSQPPPQEIFVPTTKEPCHSKVPQPGNTKIPEPGCTKVPEPGCTKVPEPGCTKVPEPGCTKVPEPGCTKVPEPGYTKVPEPGSIKVPDQGFIKFPEPGAIKVPEQGYTKVPVPGYTKVPEPCPSTVTPGPAQQKTKQK | soluble
MDIAVQLVDSGGGTLQAGKSLRLSCAISGLAFDGGAMGSEHRLTAGAMGWFRQAPGKDREFVAAISPRTDETYYAESLEGRFSVSRDAAATMVFLQADNVRLDDTASYYCAADEDVTPRVMGVIPHADHWGQGTLVTVSSAAALEHHHHHH | soluble
MGSDKIHHHHHHMPGQLKVTLLDSPNPLSKANPIHLKPLVNHCMDCRVSGLCLPTGLPVDENSCLGALIGPRMRIRKGAALFNANDPLTMLYALRCGSFKTSLNTAEGQGVVINFWMPGDVIGLDAIATEHHVCDAIALEDSEVCPVPYRRLQTLAREFPDLQQSLNRLMSREIVREHGRVLMLCNLTAEQRLASFLVGLSRRFVSRGYSAHGFMLRMSREDMASYLGLRLETVCRSVARLRALGIVDLHGRLVEILDMPALMALEQGGGECEAKGP | not soluble
MSLKNLQCELDWERRFDGMQQHLGQHLLSGCFYDLFGANTCGFHLGKEISTVDIVGFLDEKTIREAEKEANRLIFENLEVKSYAPSKKELKKVKTRRALPKTDEEIRIVEIVGLDLNACCGVHPRNTRDLQVIKIRRWEKHKNATRIEYVAGNRAVSEGHHHHHH | not soluble
MGSDKIHHHHHHMEKGEPIVVVKEISKSYGKVEALKEVSFAVEQGEVFGLIGPDGAGKSTLFRILTTLLLADKGTATVNGLDVVTDYKQIRTKVGYMPGRFSLYQDLSVEENLEFFATVFHTLIQENYDLIKDIYQQIEPFKKRRAGALSGGMKQKLALSCSLIHKPDILFLDEPTTGVDPVSRKEFWQMLRNLRKQGITIIVSTPIMDEARQCDRIAFINHGQVHGIDTPERILQKFASILCPPPLEREEAQQMAAPVIEVEQLTKSFGHFTAVDHISFQVQRGEIFGFLGANGAGKTTAMRMLCGLSRPTSGVGKVAGYDIFREAEQVKRHIGYMSQKFSLYEDLKVWENIRLFAGIYGMKEMEIEEKTDELLERLGFADERDTLVKNLPLGWKQKLAFSVSIFHEPKIVFLDEPTGGVDPATRRQFWELIYQAADRGITVFVTTHYMDEAEYCNRISIMVDGQIKALDTPARLKEQFGVETMDDVFQQLARHAVRKAD | not soluble
MSLAKNIVFIGFMGSGKSTLARALAKDLDLVFLDSDFLIEQKFNQKVSEIFEQKRENFFREQEQKMADFFSSCEKACIATGGGFVNVSNLEKAGFCIYLKADFEYLKKRLDKDEISKRPLFYDEIKAKKLYNERLSKYEQKANFILNIENKNIDELLSEIKKVIKEGGSHHHHHH | soluble
MSLIRCTDINEITPFSSFISKIPNHCGTHMDASRHFVKDGLSINELPIGYFCHKDVVLLEVPKGEAEGITKEDLEPYAAILAQVSFAFLCTGFEKYRTENPLIYQNEGPYIATSAGKYLSDNYPNLKGVGIWFPCTWFAVFSCTEGHHHHHH | not soluble
MNSLFVDNTVFITRLKAGHIGRLVQALFEEWHGFEPWSSVDKIHAYYGRCLKDDELPLAFAAVDDSGILLGSAAVKRHDMESFPRYEYWLGDVFVLPEYRGKGIGRRLVAHCIGAARSLGIKFLYLYTPDVQIFYESFGWVVVGRHFHNGEWVTVMRLDVDKV | not soluble
GLGDAGSTPTTSAADGVPSDTSLTGSGGLHLPQQLEQYRGDIMDAAKATGVPPSVIAGQIWAESRGQLNAATTNVNGKADAGLMQVNADTFKSLQQQNPGLLGNDVNDSHTNIMAGALYLRDQNKEFGDMGAALRAYNSGPDKVNKADLSDTGGVGGSSYPADVLNFAKIIESGQGNLPA | not soluble
MGSDKIHHHHHHMKMDFKIRIAQQSDSAELRDLYKNTVLVVNRRDYSQDEVEDWASCGDDLSNIEEMIKTHYFIVAVNQLSQIVGFSSITPQGYLHSMFIHADFQGKGIATMLLEEIERYAITKGIIQITSEVSLTARPFFEKQKYVVKKEQKRQANKLNLTNFWMAKTLSVIKPYHGRIPACGVFCGGCPSYTRDEKICQGAEENKTRCEKCRTFYLCCVEKGITHCYQCHLFPCTKFKGFTKRWLKYGQDFIENQKFLKQVGEMEFLRFYNEKVTD | not soluble
MSLLNKEALVNRLNASAKRQKADIVIKNGKIMDVYNQEWIYEDIAITDGVIVGLGEYEGENIIDAEGQMIVPGFIDGHVHIESSMVTPIEFAKAVLPHGVTTVVTDPHEIANVSGEKGIEFMLEQARHTPLNIHFMLPSSVPAASFERSGAILKAADLKPFYEEEEVLGLAEVMDYVSVQQAEKDMVQKLLDARVAGKRIDGHLAGLSTDLINIYRTAFVLNDHEVTSKEEALDRIRRGMYVMMREGSVAKNTLNVLPAVNEKNARRFFFCTDDKHVDDLLSEGSVNHQVKMAIQAGLNPFLAYQLGSLNAAECYGLDTKGAIAPGFDADLLFVSDLENVTVTMAMVKGQTVAEDSKAVYQDHASTAAPDQALLDSVKLAAPLNKQDFHMPIDSEQQINVIQIIPNQLETRLVQVPAPVAREFEPDTELDLLKIAVVERHKGLKETGLGVVKGFGFKSGAIATTISHDSHNIIAVGTNDEDIAAAVNKLQEIGGGLTIIKNGEELHSVPLPIAGLLSDQSAEQVNQSLLTLHDKLSLIGFTGGFNPFLTLSFLALPVIPDIKMTTTGLFDVKSFQHISLQEGHHHHHH | soluble
MAITLKTYAYTINRVLYFHTFVKFLFSNLVSFDTFEEIGNDVAVIVFLEHSFTRSHEKRHVCRESLLLSSCNNKLSRIHGLSERISKRYQKPSRGDIVVIRSPENPNKTPIKRVVGVEGDCISFVIDPVKSDESQTIVVPKGHVFVQGDYTHNSRDSRNFGPVPYGLIQGRVLWRDNTTGIVTQVVLDTALLRETTNGLRIKTYQGGSGYVQGIRFTNVEMQDTSAVKISHIMYRNITKSAKAIKFACSDTVPCSHIVLNNVNLEGKDGQVEAYCNSAEGFGYGVYSHNDKGLDQTHKSEEAETGHDEL | soluble
FCLTLRRRYTMGHHHHHHHHHHSSGHIEGRHMKLEQTLTLSPNLIGFNSNEGEKLLLTSRSREDFFPLSMQFVTQVNQAYCGVASIIMVLNSLGINAPETAQYSPYRVFTQDNFFSNEKTKAVIAPEVVARQGMTLDELGRLIASYGVKVKVNHASDTNIEDFRKQVAENLKQDGNFVIVNYLRKEIGQERGGHISPLAAYNEQTDRFLIMDVSRYKYPPVWVKTTDLWKAMNTVDSVSQKTRGFVFVSKTQDD | soluble
MGSDKIHHHHHHMNLRQLKYFLATAELGQVSRAASELSISQSSVTTAIRELEQSMGTTLFNRTAHGMDLTPTGRDLMSAARDVMEKVQIAQDIGQNHSDVTGTINIAATYTVCGYFLPYHLDRLSHRFPNLTINISELNRESIEEGLISNRFDVAVILTSNTSNPELATQTLMRSHRRLWVPQNHPLAGREFASFEDVAAQDYIMLTVDEAANTSMKYWGPTGLMPRVRMRTSSTEAVRSMVANGLGVTILSDMVYRPWSLEGRRISTVVMDREIPSMDVGLAWRRNQEMPNAARHFVDYFRNAYLSPQMAHTAWRG | not soluble
MKGVNMFERFTDRARRVIVLAQEEARGLNHNYIGTEHILLGLIHEGEGVAAKALESMGISLEAVRQEVEEIIGHGSEPPAGHIPFTPRAKKVLELSLREGLQMGHKYIGTEFLLLGLIREGDGVAAQVLVKLGADLPRVRQQVIQLLS | not soluble
MTLTRGSFTYSSGEEYTGEWKEGRRHGKGELKFADGTCYKGHFENGLFHGSGVLVFPDGSRYEGEFAQGKFQGVGIFSRFDGMKFEGEFKSGRVEGHGLLTFPDGSHGAPRNEGMFENNKLLKREKCQAVVQRAKNSASTARGLSV | soluble
MGSDKIHHHHHHMSQPVWPNFYIIGAVKSGTTSLYAYLRQHPQVFLPAMKEPHFFTQPHPSPEQRHWIQYVGNVEQYQQLYRGAERFPRIGDASPSYLWCEEAPERIHAVQPDARIIVILRDPVQRAHAQYLMDFNEGVLDLPFVEALQRDWTRPDKGWGISQLYVELGRYTAQIMRYQQQFGAGQVHVCLLEDLKKNPLAVLEDIADFLEIDRGPLHDMDLETVHNVHRLPRGNWARQLASGHISRYIGEHLFPRTWGEFVWRNVFLREGRKPPMDAEARSFLQAIYTPEIERLEQLLGRPLPELRISWKFSEPAGQSLSTALPPKPSGNR | not soluble
MGSDKIHHHHHHMPLTMNKDVFITCAVTGSGSTQDRSPHVPRSPKQIAESAIEAARAGAAIVHCHVRDPESGAPSRDLSYYREVTDRIREADIDVVLNLTAGMGGDITFGSTDAPFPVDEAGTDMVGAAERVAHIADCLPEICTLDCGTMNFAEADYVMTNTPGMLRAMGRMMTDLGVKPEIEAFDTGHLWFAKELVKEGVLDSPALVQLCMGVPWGAPDDLNTFMAMVNNVPDNWTFSAFALGRNEMAYVAASVLAGGNVRVGLEDNLWLEKGVLATNAQLVEQAVGIIEGMGARVIGPDMVRETLGLTKQAPA | not soluble
MSDEIVTNKSVTYVNNTTPVTITSSELDLRSCYQDDEVVIEVHAAALNPIDFITHQLCNSYIFGKYPKTYSRDYSGVIIKAGKDVDNRWKVGDKVNGMYSHIYGERGTLTHYLILNPAKDVPITHMVEVPKDENDPYDDFVYAAAWPLTFGTAFSTLYDFKKDWTSDSKVLVIGASTSVSYAFVHIAKNYFNIGTVVGICSKNSIERNKKLGYDYLVPYDEGSIVENVKKLKQSVLENDKFDMIFDSVGNHDFFPVIDQFLKPKAKNSFYVTIAGNNKADYKNISWRDFVSLSSILKAINPFKKYNWRFGHPYPPNNFIEVGNEMIKKGTYKPPIDSVYEFDQYKEAIDRLMSNRAKGKVVVKMK | soluble
MGSDKIHHHHHHADSDDENSNFSSGITGMNLSAEVLKHQPMVEKYARENGISEYVNVLLAIIQVESGGTAEDVMQSSESLGLPPNSLDTESSIKQGCKYFASLLSSSKNQGIDDLNVAIQSYNYGGGYVGYVAGKGKKHTFNLAESFAREKSGGKKVTYTNPIAVAKNGGWRWNYGNMFYVELVNQYLTVPQVSGELAQKVMNEALKYQGWKYVYGGSNPNTSFDCSGLTQWCYGKAGISLPRTAQAQYDATQHLPLSQAKAGDLVFFHSTYNAGSYVTHVGIYVGNNQMYHAGDPIGYADLSSSYWQQHLIGAGRVKQ | not soluble
